Experimental data from patent US20100068218A1.

Columns and labels:
HLA-A*0101 (human) = test: peptide-HLA binding inhibition assay
HLA-A*2402 (human) = test: peptide-HLA binding inhibition assay

Binder | IC50 (HLA-A*0101 (human)) | IC50 (HLA-A*2402 (human))
LTFGRETVLEY (modifications not checked) [HBV core 137 epitope …] | 80 nM | 
GYPALMPLY (modifications not checked) [HBV pol 639 epitope …] |  | 280 nM
LWFHISCLTF (modifications not checked) [HBV core 101 epitope …] |  | 6.7 nM
YSLNFMGY (modifications not checked) [HBV pol 580 epitope YSLNFMGY] | 382 nM | 
RFSWLSLLVPF (modifications not checked) [HBV env 332 epitope …] |  | 12 nM
SFCGSPYSW (modifications not checked) [HBV pol 167 epitope …] |  | 146 nM
